Measurements reported in patent US20240254260A1 (ISU ABXIS, published 2024).

Biological target: T1, ASM protein present in the blood plasma of APP/PS1 mice (mouse, UniProt Q04519 45-626, limits assumed)
T1 sequence: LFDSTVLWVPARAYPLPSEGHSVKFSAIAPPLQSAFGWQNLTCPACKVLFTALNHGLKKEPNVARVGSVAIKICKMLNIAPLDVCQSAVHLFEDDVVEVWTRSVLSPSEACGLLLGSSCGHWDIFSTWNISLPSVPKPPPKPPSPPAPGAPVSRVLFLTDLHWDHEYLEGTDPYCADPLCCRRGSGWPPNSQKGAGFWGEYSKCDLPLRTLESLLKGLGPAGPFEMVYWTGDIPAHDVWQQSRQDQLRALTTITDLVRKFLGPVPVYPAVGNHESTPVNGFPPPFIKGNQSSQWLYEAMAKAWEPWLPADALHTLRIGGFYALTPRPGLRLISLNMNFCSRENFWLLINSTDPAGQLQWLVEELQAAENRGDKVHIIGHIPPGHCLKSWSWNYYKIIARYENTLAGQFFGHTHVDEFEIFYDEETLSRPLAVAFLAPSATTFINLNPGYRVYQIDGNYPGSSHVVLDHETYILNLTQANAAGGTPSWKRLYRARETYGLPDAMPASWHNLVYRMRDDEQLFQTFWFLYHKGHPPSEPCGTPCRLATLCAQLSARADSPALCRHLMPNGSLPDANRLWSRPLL
Assay: cell-based or functional assay

activity of the ASM protein in blood plasma of APP/PS1 mice after administration of 50 mg/kg antibody (UPLC), relative to the negative control group: ~64%
B1: antibody #9104 (antibody, mouse IgG1, V domains shown)
VH: EVQLLESGGGLVQPGGSLRLSCAASGFTFSNYYMSWVRQAPGKGLEWVSGIYYGSGNIYYADSVKGRFTISRDNSKNTLYLQMNSLRAEDTAVYYCARDTPGFDYWGQGTLVTVSS
VL: QSVLTQPPSASGTPGQRVTISCTGSSSNIGNNAVNWYQQLPGTAPKLLIYYDSHRPSGVPDRFSGSKSGTSASLAISGLRSEDEADYYCGAWDYSLSAYVFGGGTKLTVLG
